The text below walks through data of paper PMC8748450, “Aminoacyl chain translocation catalysed by a type II thioesterase domain in an unusual non-ribosomal peptide synthetase” (Nature Communications, 2022).

Broadly, the Kd is the concentration at which binding is half-saturated.

Holding throughout (conditions): both partners purified
The target of experiment [1] is T1, apo-LgnB-A1-T0 didomain (NRPS subunit LgnB) (RED-tris-NTA label (in the MST experiment only)).
T1 construct: LgnB, NRPS subunit with domains A1-T0, encoded by lgnB of the legonmycin (lgn) biosynthetic gene cluster, amplified from cosmid 7G1; about 65 kDa; apo form (no phosphopantetheine); Cloned into EcoRI/HindIII of pET-28a(+); MA37; source: E. coli BL21-CodonPlus (DE3)-RP, purified (Ni-NTA; gel filtration on Superdex 75 for ITC); not shown: His6, N-terminal, kept
T1 sequence (main, as listed by the source): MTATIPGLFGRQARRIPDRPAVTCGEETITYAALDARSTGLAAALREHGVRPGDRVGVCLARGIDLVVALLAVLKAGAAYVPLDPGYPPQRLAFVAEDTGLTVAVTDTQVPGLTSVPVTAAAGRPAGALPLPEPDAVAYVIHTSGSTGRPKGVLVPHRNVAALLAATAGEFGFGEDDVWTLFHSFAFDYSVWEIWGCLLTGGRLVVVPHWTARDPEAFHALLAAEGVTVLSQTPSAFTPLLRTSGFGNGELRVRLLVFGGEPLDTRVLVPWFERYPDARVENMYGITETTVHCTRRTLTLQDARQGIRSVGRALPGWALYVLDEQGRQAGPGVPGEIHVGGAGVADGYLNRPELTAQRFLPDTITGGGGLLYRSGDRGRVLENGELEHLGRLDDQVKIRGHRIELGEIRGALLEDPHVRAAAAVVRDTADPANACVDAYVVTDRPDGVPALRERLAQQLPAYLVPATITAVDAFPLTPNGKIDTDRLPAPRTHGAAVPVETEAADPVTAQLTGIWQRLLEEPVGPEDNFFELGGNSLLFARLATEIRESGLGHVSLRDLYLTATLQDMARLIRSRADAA
Put plainly: MST; LgnB labelled with RED-tris-NTA, 25 nM, as target; LgnA as ligand, 10 to 0.000305 µM; HBS-ET (10 mM HEPES, 150 mM NaCl, 3 mM EDTA, 0.005% Tween-20, pH 8.0); 25 °C; Monolith NT.115.

The target in experiment [2] is T2, apo-LgnD (NRPS subunit, C1-T1-C2-A2-T2-TE).
T2 construct: LgnD, NRPS subunit with domains C1-T1-C2-A2-T2-TE, encoded by lgnD of the legonmycin (lgn) biosynthetic gene cluster, amplified from cosmid 7G1; about 207 kDa; apo form (no phosphopantetheine); Cloned into NdeI/XhoI of pEHISTEVa; MA37; also called full-length LgnD; source: E. coli BL21-CodonPlus (DE3)-RP, purified (Ni-NTA; gel filtration on Superdex 75 for ITC)
As to the kind of experiment: ITC; LgnA (125 µM) titrated into LgnD or truncated LgnD (25 µM), also into LgnB (concentrations for LgnB not told); thirteen 3 µL injections, 25 °C; one set binding model; MicroCal PEAQ-ITC. (In general: ITC needs no label: the signal is the heat of the interaction.)

Experiment [3] deals with T3, apo-LgnD-C1-T1 didomain (truncated LgnD).
T3 chain: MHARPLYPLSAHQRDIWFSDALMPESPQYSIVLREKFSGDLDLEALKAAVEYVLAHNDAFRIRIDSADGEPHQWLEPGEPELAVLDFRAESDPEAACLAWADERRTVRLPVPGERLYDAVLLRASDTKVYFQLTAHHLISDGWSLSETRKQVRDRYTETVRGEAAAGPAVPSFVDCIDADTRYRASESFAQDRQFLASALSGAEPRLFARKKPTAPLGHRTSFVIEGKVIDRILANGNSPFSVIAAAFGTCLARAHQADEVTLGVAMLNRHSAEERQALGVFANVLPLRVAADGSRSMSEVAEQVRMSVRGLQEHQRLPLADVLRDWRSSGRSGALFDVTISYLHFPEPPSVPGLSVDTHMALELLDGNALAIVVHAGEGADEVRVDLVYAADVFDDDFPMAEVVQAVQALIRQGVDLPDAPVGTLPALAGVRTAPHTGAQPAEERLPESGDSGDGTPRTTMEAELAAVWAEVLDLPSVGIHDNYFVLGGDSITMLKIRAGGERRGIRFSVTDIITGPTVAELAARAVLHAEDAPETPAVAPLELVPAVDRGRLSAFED
Described as above.

The target in experiment [4] is T4, LgnD-T1 domain (truncated LgnD).
T4 chain: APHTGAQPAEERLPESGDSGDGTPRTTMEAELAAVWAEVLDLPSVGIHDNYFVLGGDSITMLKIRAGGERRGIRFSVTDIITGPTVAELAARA
The description is as above.

B1: LgnA, type II thioesterase (TEII) orthologue (enzyme)
chain: MPVTLLCIPYAGAGASLFRRWKRHPFQHMDVAAVQLPGREELFADGPCTSMSELVDLCAGHIRELPQDAPFALFGHSFGALVAYETAQRLAAEGLRLPERLIVSGAAAPWLPRPVTDADSLSDDQFVARVRDVVGYDHPALHDAELRGLLLPSLRADLSISDRYAPGSTDPLPVPLTVLRGSDDRLVSRQDVELWAKAASQPTELIELPGDHMYFSLDPKPLLAELDAVFARSAA
As to B1, the Kd in experiment [1] came out at 1700 ± 813 nM; in experiment [2] it was 2550 ± 96 nM.

B2: LgnA, type II thioesterase (TEII) orthologue (enzyme)
chain: B1 chain
modifications: apo form (no phosphopantetheine on Ser492)
B2 yielded a Kd in experiment [3] of 1010 ± 227 nM.

B3: LgnA, type II thioesterase (TEII) orthologue (enzyme)
chain: B1 chain
modifications: apo form (no phosphopantetheine on Ser492 of LgnD); limits from primers 28a-LgnD_T1-F/R
B3: the Kd in experiment [4] was found to be 7210 ± 1610 nM.
